The values below come from patent US20050164185A1 (YEDA RESEARCH AND DEVELOPMENT CO LTD AT WEIZMANN INSTITUTE …, published 2005).

For orientation: Kd means the equilibrium constant for the complex coming apart. Lower therefore signals a tighter complex.

The chains are these.
B2: interferon beta (wild type, glycosylated, produced in CHO) (ligand, human, UniProt P01574 22-187, looked up)
chain: MSYNLLGFLQRSSNFQCQKLLWQLNGRLEYCLKDRMNFDIPEEIKQLQQFQKEDAALTIYEMLQNIFAIFRQDSSSTGWNETIVENLLANVYHQINHLKTVLEEKLEKEDFTRGKLMSSLHLKRYYGRILHYLKAKEYSHCAWTIVRVEILRNFYFINRLTGYLRN
modifications: glycosylated (site not stated)
notes: also called IFNβ; IFN-β

Assay [1] deals with B2. In words: RifS, IFNAR2-EC immobilised through antibodies.
The target in assay [2] is B2. Kind of assay: RifS, IFNAR2-EC immobilised through antibodies, 500 mM NaCl, pH 7.4.
Assay [3] concerns the target T1, wild type IFNAR2-EC (extracellular domain of human IFNAR2) (human, UniProt P48551 28-237).
T1 construct: Expressed in E. coli, non-glycosylated; also called wt; WT protein
T1 sequence: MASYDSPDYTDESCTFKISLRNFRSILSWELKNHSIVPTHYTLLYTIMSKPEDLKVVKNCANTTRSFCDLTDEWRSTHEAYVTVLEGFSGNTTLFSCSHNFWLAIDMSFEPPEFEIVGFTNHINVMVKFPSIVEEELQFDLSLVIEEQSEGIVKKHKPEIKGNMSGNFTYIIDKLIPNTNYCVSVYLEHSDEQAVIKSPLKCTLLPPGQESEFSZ
Described as above.

In assay [4] the target is B2. In words: cell-based or functional assay.

B1: IFNAR2 EC H78A/N100A mutant (receptor)
chain: MASYDSPDYTDESCTFKISLRNFRSILSWELKNHSIVPTHYTLLYTIMSKPEDLKVVKNCANTTRSFCDLTDEWRSTAEAYVTVLEGFSGNTTLFSCSHAFWLAIDMSFEPPEFEIVGFTNHINVMVKFPSIVEEELQFDLSLVIEEQSEGIVKKHKPEIKGNMSGNFTYIIDKLIPNTNYCVSVYLEHSDEQAVIKSPLKCTLLPPGQESEFSZ
notes: also called R2 H78A/N100A; MIFNAR2 EC
For B1, in assay [1], the “fold higher affinity than wild type” value was about 100 fold. In assay [2], this molecule came in with a Kd of about 30 pM.
As for B2, the Kd in assay [3] was about 3000 pM.

B3: IFNAR2 EC H78A/N100D mutant (receptor)
chain: MASYDSPDYTDESCTFKISLRNFRSILSWELKNHSIVPTHYTLLYTIMSKPEDLKVVKNCANTTRSFCDLTDEWRSTAEAYVTVLEGFSGNTTLFSCSHDFWLAIDMSFEPPEFEIVGFTNHINVMVKFPSIVEEELQFDLSLVIEEQSEGIVKKHKPEIKGNMSGNFTYIIDKLIPNTNYCVSVYLEHSDEQAVIKSPLKCTLLPPGQESEFSZ
Consider B3, for which the “IC50 (read off the curve)” value in assay [4] was about 400 pM.
